Numbering of substitutions follows the chain as printed. Names and notes keep the numbering of the source.

The nature of the assay: Kinetic parameters of reported proteins catalyzing the Kemp elimination (literature). The note with it: literature kcat/KM (M-1s-1) divided by total number of amino acids. The format is biochemical. An excerpt:
Extended Data Table 4 çKinetic parameters of reported proteins catalyzing the Kemp elimination of 5-nitrobenzisoxazole with base-mediated mechanism.
Protein Description kcat/KM, kcat, KM, Amino Ref
AlleyCat Single mutation of 5.8 ND ND 0.08 64
Lysozyme Double mutation of 1.8 ND ND 0.01 138 […]

B1: tKSI: Natural enzyme; ref 68 (protein, UniProt P00947 1-125, looked up)
Steroid Delta-isomerase: MNTPEHMTAVVQRYVAALNAGDLDGIVALFADDATVEDPVGSEPRSGTAAIREFYANSLKLPLAVELTQEVRAVANEAAFAFTVSFEYQGRKTVVAPIDHFRFNGAGKVVSMRALFGEKNIHAGA
In the case of B1, the Amino acid efficiency is given as 0.02.

B2: D38N tKSI: Single mutation of tKSI; ref 68 (protein, UniProt P00947 1-125, looked up, variant D38N)
Steroid Delta-isomerase: B1 Steroid Delta-isomerase with D38N
B2 returned an Amino acid efficiency of 140.

(Values after paper doi:10.1101/2025.01.30.635804, “Emergence of specific binding and catalysis from a designed generalist binding protein” (bioRxiv, 2025).)
